This is an account of results in article PMC5818262 (ACS chemical biology, 2012).

Where two headings read alike, the source gives them in different places.

Series [1] has as its system Cit1. The series can be described thus: steady-state initial rates, Hill equation fit. Type of series: biochemical, Streptantibioticus cattleyicolor. To be noted: read-out: K0.5.
Series [2] relates to Cit2. In words: steady-state initial rates, Hill equation fit. The note with it: read-out: K0.5. The class given is biochemical, Streptantibioticus cattleyicolor.
The target of series [3] is AckA (S. cattleya) (Streptantibioticus cattleyicolor, UniProt G8X369). The class given is biochemical.
The target of series [4] is ACS (S. cattleya) (Streptantibioticus cattleyicolor, UniProt F8K1P4). Type of series: biochemical.
The target in series [5] is GltA (Escherichia coli, UniProt P0ABH7). In words: steady-state initial rates, Hill equation fit. The class given is biochemical. The note with it: read-out: K0.5.
Series [6] concerns CC(=O)SCCNC(=O)CCNC(=O)[C@H](O)C(C)(C)COP(=O)(O)OP(=O)(O)OC[C@H]1O[C@@H](n2cnc3c(N)ncnc32)[C@H](O)[C@@H]1OP(=O)(O)O. The series can be described thus: steady-state initial rates, Hill equation fit. The class given is biochemical, Escherichia coli.
Substrate in series [7]: CC(=O)O
In words: purified protein.

Substrate in series [8]: CC(C)(COP(=O)(O)OP(=O)(O)OC[C@H]1O[C@@H](n2cnc3c(N)ncnc32)[C@H](O)[C@@H]1OP(=O)(O)O)[C@@H](O)C(=O)NCCC(=O)NCCSC(=O)CF
In words: steady-state initial rates, Hill equation fit. Type of series: biochemical, Streptomyces coelicolor.

Substrate in series [9]: CC(=O)SCCNC(=O)CCNC(=O)[C@H](O)C(C)(C)COP(=O)(O)OP(=O)(O)OC[C@H]1O[C@@H](n2cnc3c(N)ncnc32)[C@H](O)[C@@H]1OP(=O)(O)O
The series can be described thus: steady-state initial rates, Hill equation fit. Type of series: biochemical, Streptomyces coelicolor.

Chain of GltA (P0ABH7 whole entry): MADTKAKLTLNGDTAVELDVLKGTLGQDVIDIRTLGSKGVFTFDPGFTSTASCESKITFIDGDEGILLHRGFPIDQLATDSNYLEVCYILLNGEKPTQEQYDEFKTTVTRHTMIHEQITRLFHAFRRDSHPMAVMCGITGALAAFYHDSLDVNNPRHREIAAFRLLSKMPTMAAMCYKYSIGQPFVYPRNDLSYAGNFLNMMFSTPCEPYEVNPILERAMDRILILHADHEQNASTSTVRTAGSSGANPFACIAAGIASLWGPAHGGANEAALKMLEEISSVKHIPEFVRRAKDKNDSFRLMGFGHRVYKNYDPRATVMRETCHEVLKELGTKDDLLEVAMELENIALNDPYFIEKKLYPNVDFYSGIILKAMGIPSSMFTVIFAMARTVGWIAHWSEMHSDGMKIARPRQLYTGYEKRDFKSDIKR

As to `O=C(O)CC(=O)C(=O)O` [Oxaloacetate], the results for the Km in series [1] and in series [2] were 130 ± 20 µM and 3.8 ± 0.4 µM, respectively.

`O=C(O)CF` [compound 6, Fluoroacetate]: the Km in series [3] came out at 5700 µM; in series [4] it was 52000 µM.

Turning to `CC(C)(COP(=O)(O)OP(=O)(O)OC[C@H]1O[C@@H](n2cnc3c(N)ncnc32)[C@H](O)[C@@H]1OP(=O)(O)O)[C@@H](O)C(=O)NCCC(=O)NCCSC(=O)CF` [compound 9, Fluoroacetyl-CoA], the Km in [1] was found to be 16 ± 4 µM; in [2] it was 0.98 ± 0.05 µM; in [5], 5.1 ± 0.3 µM.

With `CC(=O)SCCNC(=O)CCNC(=O)[C@H](O)C(C)(C)COP(=O)(O)OP(=O)(O)OC[C@H]1O[C@@H](n2cnc3c(N)ncnc32)[C@H](O)[C@@H]1OP(=O)(O)O` [compound 10, Acetyl-CoA], the Km in series [1] is 15 ± 2 µM; in series [2], 4.9 ± 0.4 µM.

As for GltA (Escherichia coli K-12), in series [6], the K0.5 is 170 ± 60 µM, the kcat was 80 ± 10 s⁻¹ and the kcat/Km amounted to 500000 ± 200000 M⁻¹ s⁻¹.

B1: AckA (E. coli) (Escherichia coli K-12) (protein)
chain: MSSKLVLVLNCGSSSLKFAIIDAVNGEEYLSGLAECFHLPEARIKWKMDGNKQEAALGAGAAHSEALNFIVNTILAQKPELSAQLTAIGHRIVHGGEKYTSSVVIDESVIQGIKDAASFAPLHNPAHLIGIEEALKSFPQLKDKNVAVFDTAFHQTMPEESYLYALPYNLYKEHGIRRYGAHGTSHFYVTQEAAKMLNKPVEELNIITCHLGNGGSVSAIRNGKCVDTSMGLTPLEGLVMGTRSGDIDPAIIFHLHDTLGMSVDAINKLLTKESGLLGLTEVTSDCRYVEDNYATKEDAKRAMDVYCHRLAKYIGAYTALMDGRLDAVVFTGGIGENAAMVRELSLGKLGVLGFEVDHERNLAARFGKSGFINKEGTRPAVVIPTNEELVIAQDASRLTA
B1: in series [7], the Km result is “(2.7 ± 0.2) × 10^4 μM”, the kcat came to 1340 s⁻¹ and the kcat/Km is 50000 M⁻¹ s⁻¹.

B2: CitA (Streptomyces coelicolor A3(2)) (protein)
chain: MSDNSVVLRYGDGEYTYPVIDSTVGDKGFDIGKLRAQTGLVTLDSGYGNTAAYKSAITYLDGEAGILRYRGYPIEQLAERSSFVEVAYLLINGELPTVDELSAFKGEITQHTLLHEDVKNFYKGFPRDAHPMAMLSSVVSALSTFYQDSHNPFDERQRNLSTIRLLAKLPTIAAYAYKKSIGHPFVYPANNLGYVENFLRMTFSVPAQEYELDPTVVAALDKLLILHADHEQNCSTSTVRLVGSSQANMFASISAGINALWGPLHGGANQSVLEMLEGIRDAGGDVDSFIRKVKNKEDGVRLMGFGHRVYKNFDPRAKIIKAAAHDVLSALGKSDELLDIALKLEEHALSDDYFVSRSLYPNVDFYTGLIYRAMGFPTEMFTVLFALGRLPGWIAQWHEMIKEPGSRIGRPRQIYTGVVERDFVPVEER
Consider B2, for which, in series [8], the K0.5 was found to be 15.4 ± 0.8 µM and the kcat/Km is 126000 ± 8000 M⁻¹ s⁻¹. Further, in [9], the K0.5 was 47 ± 2 µM, the kcat is 17.9 ± 0.4 s⁻¹ and the kcat/Km came to 380000 ± 10000 M⁻¹ s⁻¹.

A word on the kcat: it is the maximal rate divided by the concentration of active sites. One may read the kcat/Km as the second-order rate constant that governs catalysis at low substrate concentration.
